From patent publication US20110287948A1, “MEASUREMENT OF MATERIAL PROPERTIES AND RELATED METHODS AND COMPOSITIONS BASED ON CYTOADHERENCE” (Massachusetts Institute of Technology, priority 2010, published 2011)

B1: CCL19: chemokine CCL19 (R&D Systems) used as chemoattractant for T cells (protein, UniProt Q99731 22-98, looked up)
C-C motif chemokine 19: GTNDAEDCCLSVTQKPIPGYIVRNFHYLLIKDGCRVPAVVFTTLRGRQLCAPPDQPWVERIIQRLQRTSAKMKRRSS

Columns and labels:
[1] = system: Acute promyelocytic leukemia cells; details: cells induced to differentiate down the neutrophil lineage for three days; cited from earlier work
[2] = system: WAS−/− T cells; test: In vitro Transwell cell migration toward CCL19, WAS-/- T cells; assay type: cell-based, mouse (WAS−/− on Balb/c background); details: seven hours of exposure to CCL19 (100 ng/mL), 5-μm pore inserts
Description: Cells from the peripheral lymph nodes and the spleen of Balb/c mice and WAS−/− mice on Balb/c background were pooled and enriched using the EasySep Mouse CD8+ T Cell Enrichment Kit from STEMCELL Technologies (British Columbia, Canada). Enrichment was confirmed using fluorescence-activated cell sorting (FACS) by staining the cells with FITC/anti-Thy1.2 and PE/anti-CD8a antibodies (Abs). The memory T cell population was assessed by evaluating the expression of CD44 and CD62L via FACS. T cells in an activation medium with 100 units/mL IL-2 and 1% anti-CD28 Ab were activated by plate-bound anti-CD3 Abs for 4 day at 37° C. The activation medium included RPMI with 10% FBS, 10 mM HEPES (1M), 1% NEAA, 1% sodium pyruvate (100 mM), […] (3-mercaptoethanol, 4 mM L-glutamine, and 100 μg/mL Pen/Strep. Cell activation was verified via FACS measurement of CD25. Enriched WT and WAS−/− T cells in DMEM with 1% BSA and 0.1% Pen/Strep were induced to migrate through polycarbonate Transwell inserts (Costar, Cambridge, Mass.) with 5-μm pores in a 24-well plate toward a CCL19 chemokine source (R&D Systems, Minneapolis, Minn.). Inserts contained 5×10^5 cells in 100 μL of medium, and wells contained 1 mL of medium with either no CCL19 or 100 ng/mL of CCL19. Cells were allowed to migrate for ˜7 hours at 37° C., and those that crossed the membrane were collected and used for MPA studies.

[3] = system: WAS−/− T cells; test: Micropipette aspiration of CCL19-stimulated migratory WAS-/- T cells; assay type: cell-based, mouse (WAS−/− on Balb/c background); details: naïve WAS−/− T cells that migrated in response to CCL19
Description: (§1) Micropipettes made using a micropipette puller were trimmed to 2.5-3 or 4.5-5 μm inner diameter for testing naïve and activated T cells. MPA glass chambers consisted of a 24 mm×60 mm microscope coverslip bottom, a U-shaped parafilm spacer, and a 22 mm×22 mm microscope coverslip top. The assembly was baked for two hours at 80° C. to ensure good adhesion between the components.
(§2) Enriched WT and WAS−/− T cells in DMEM with 1% BSA and 0.1% Pen/Strep were induced to migrate through polycarbonate Transwell inserts (Costar, Cambridge, Mass.) with 5-μm pores in a 24-well plate toward a CCL19 chemokine source (R&D Systems, Minneapolis, Minn.). Inserts contained 5×10^5 cells in 100 μL of medium, and wells contained 1 mL of medium with either no CCL19 or 100 ng/mL of CCL19. Cells were allowed to migrate for ˜7 hours at 37° C., and those that crossed the membrane were collected and used for MPA studies.
3×10^5 cells in 100 μL RPMI with 10% FBS and 1% HEPES was stained with 10 μL trypan blue. The mixture was added to 600 μL of either the RPMI medium or the T cell activation medium with IL-2 for naïve and activated T cell testing. Migratory T cells were tested in the medium used for migration. The MPA device was based on the design of Hochmuth et al (18). […] The cell movement in the micropipette was recorded with a CCD camera. […]

[4] = system: WT T cells; test: FACS analysis of phenotype (CD62L/CD44) of WT T cells induced to migrate by CCL19; assay type: cell-based, mouse (Balb/c); details: WT cells that migrated after CCL19 exposure
Description: FIG. 68 depicts results of a FACS analysis of phenotype of naïve WT T cells induced to migrate by the chemokine CCL19. T cells were first gated on PI to exclude dead cells. The cell samples tested were naïve T cells not exposed to CCL 19 (A, D), cells that remained in the insert after CCL19 exposure (100 ng/mL) for seven hours (B, E), and cells that migrated across the insert membrane after the same chemokine treatment (C, F).
Cells from the peripheral lymph nodes and the spleen of Balb/c mice and WAS−/− mice on Balb/c background were pooled and enriched using the EasySep Mouse CD8+ T Cell Enrichment Kit from STEMCELL Technologies (British Columbia, Canada). Enrichment was confirmed using fluorescence-activated cell sorting (FACS) by staining the cells with FITC/anti-Thy1.2 and PE/anti-CD8a antibodies (Abs). The memory T cell population was assessed by evaluating the expression of CD44 and CD62L via FACS. T cells in an activation medium with 100 units/mL IL-2 and 1% anti-CD28 Ab were activated by plate-bound anti-CD3 Abs for 4 day at 37° C. The activation medium included RPMI with 10% FBS, 10 mM HEPES (1M), 1% NEAA, 1% sodium pyruvate (100 mM), […] (3-mercaptoethanol, 4 mM L-glutamine, and 100 μg/mL Pen/Strep. Cell activation was verified via FACS measurement of CD25. […]

[5] = system: WT T cells; test: Micropipette aspiration of CCL19-stimulated migratory WT T cells; assay type: cell-based, mouse (Balb/c)
Description: as §1, §2
3×10^5 cells in 100 μL RPMI with 10% FBS and 1% HEPES was stained with 10 μL trypan blue. The mixture was added to 600 μL of either the RPMI medium or the T cell activation medium with IL-2 for naïve and activated T cell testing. Migratory T cells were tested in the medium used for migration. The MPA device was based on the design of Hochmuth et al (18). The aspiration rate and volume were 36 mL/hr and 2 mL, corresponding to a total pressure of ˜400 Pa. The cell movement in the micropipette was recorded with a CCD camera. Aspirations were performed at approximately room temperature.
MPA data were fitting using the half-space model (77) described by the expressions:
where E is the cell modulus, L is the length from the micropipette opening to the cell leading edge, Δp is the pressure differential at a particular L, ri and ro are the inner and outer […] of the micropipette, and φ is the wall function that is approximately […]. The ImageJ software was used to manually track the change in L. By plotting Δp against ri/L and finding the best linear fit (minimal total error) a modulus could be derived from the slope of the line. […]

Molecule | more compliant than the control (creep compliance) [1] [%] | cells migrated [2] [%] | apparent Young's modulus (mean+/−SD) [3] | migrating cells stained CD62L high and CD44 low (naïve phenotype) [4] [%] | stiffness compared to activated cells ([5]; migratory WT cells vs activated WT T cells) | modulus reduction from the value measured in the absence of CCL19 ([5]; migratory WT cells vs untreated naïve WT cells) | apparent Young's modulus (mean+/−SD) ([5]; naïve WT T cells that migrated in response to CCL19)
CC1=C(/C=C/C(C)=C/C=C/C(C)=C/C(=O)O)C(C)(C)CCC1 [all-trans retinoic acid] | 45 |  |  |  |  |  | 
B1 |  | ~6.4 | 152+/−102 Pa | ~90 | about 1.4 times | more than 2 times | 128+/−33 Pa
